Measurements: US20160016995A1

Tests used:
[1] = system: GFP-pdt (GFP with C-terminal wild-type M. florum ssrA tag) [GFP: P42212]
[2] = system: GFP-pdt#2 (Example 1) [GFP: P42212]
[3] = system: GFP-pdt#3 (Example 1) [GFP: P42212]
[4] = system: GFP-pdt#4 (Example 1) [GFP: P42212]
[5] = system: GFP-pdt#5 (Example 1) [GFP: P42212]
[6] = system: GFP-pdt#5A (Example 1) [GFP: P42212]
[7] = system: GFP-pdt#5B (Example 1) [GFP: P42212]
[8] = system: GFP-pdt#5H (Example 1) [GFP: P42212]
[9] = system: GFP-pdt#6 (Example 1) [GFP: P42212]
[10] = system: untagged GFP (GFPmut3b) [GFP: P42212]

## Mesoplasma florum Lon protease (mf-Lon)
[1]
  Fold Degradation (0 vs 50 ng/ml aTc): 20.7 fold
  GFP level after mf-Lon expression (Example 2): reduced to 3% of its initial levels
GFP-pdt#1 [GFP: P42212]
  Fold Degradation (0 vs 50 ng/ml aTc): 24.6 fold
GFP-pdt#10 [GFP: P42212]
  Fold Degradation (0 vs 50 ng/ml aTc): 41.5 fold
GFP-pdt#11 [GFP: P42212]
  Fold Degradation (0 vs 50 ng/ml aTc): 17.7 fold
GFP-pdt#12 [GFP: P42212]
  Fold Degradation (0 vs 50 ng/ml aTc): 31.6 fold
GFP-pdt#13 [GFP: P42212]
  Fold Degradation (0 vs 50 ng/ml aTc): 18.6 fold
[2]
  Fold Degradation (0 vs 50 ng/ml aTc): 51.8 fold
[3]
  Fold Degradation (0 vs 50 ng/ml aTc): 61.8 fold
[4]
  Fold Degradation (0 vs 50 ng/ml aTc): 51 fold
[5]
  Fold Degradation (0 vs 50 ng/ml aTc): 48.7 fold
[6]
  Fold Degradation (0 vs 50 ng/ml aTc): 5.4 fold
[7]
  Fold Degradation (0 vs 50 ng/ml aTc): 2.6 fold
GFP-pdt#5C [GFP: P42212]
  Fold Degradation (0 vs 50 ng/ml aTc): 1.6 fold
GFP-pdt#5D [GFP: P42212]
  Fold Degradation (0 vs 50 ng/ml aTc): 12 fold
GFP-pdt#5E [GFP: P42212]
  Fold Degradation (0 vs 50 ng/ml aTc): 7.2 fold
GFP-pdt#5F [GFP: P42212]
  Fold Degradation (0 vs 50 ng/ml aTc): 4 fold
GFP-pdt#5G [GFP: P42212]
  Fold Degradation (0 vs 50 ng/ml aTc): 4.2 fold
[8]
  Fold Degradation (0 vs 50 ng/ml aTc): 3.6 fold
[9]
  Fold Degradation (0 vs 50 ng/ml aTc): 55.4 fold
GFP-pdt#7 [GFP: P42212]
  Fold Degradation (0 vs 50 ng/ml aTc): 31.7 fold
GFP-pdt#8 [GFP: P42212]
  Fold Degradation (0 vs 50 ng/ml aTc): 48.4 fold
GFP-pdt#9 [GFP: P42212]
  Fold Degradation (0 vs 50 ng/ml aTc): 17 fold
GFP-pdt#S1 [GFP: P42212]
  Fold Degradation (0 vs 50 ng/ml aTc): 39.4 fold
GFP-pdt#S2 [GFP: P42212]
  Fold Degradation (0 vs 50 ng/ml aTc): 44.9 fold
GFP-pdt#S3 [GFP: P42212]
  Fold Degradation (0 vs 50 ng/ml aTc): 38.7 fold
[10]
  Fold Degradation (0 vs 50 ng/ml aTc): 1.2 fold

## mf-Lon fused to the E. coli ssrA tag variant ec-AAV
[5]
  GFP-pdt#3 (Example 2 name) degradation across ATc levels: resulting in reduced GFP-pdt#3 degradation throughout the range of ATc levels tested
